This passage reports % of anti-nutritional factor degraded results from patent US20040161448.

Series [1] deals with T1, Soybean Kunitz Trypsin Inhibitor (UniProt P01070).
T1 sequence: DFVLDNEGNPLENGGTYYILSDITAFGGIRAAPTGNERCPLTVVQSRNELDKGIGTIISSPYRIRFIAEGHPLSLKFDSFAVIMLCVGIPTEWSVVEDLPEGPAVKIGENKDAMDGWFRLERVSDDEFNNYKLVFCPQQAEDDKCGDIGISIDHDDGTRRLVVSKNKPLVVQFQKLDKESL

In another series the target is soybean agglutinin (SBA) (UniProt P05046).
The target in series [2] is T2, soybean Bowman-Birk Inhibitor (UniProt P01055).
T2 sequence: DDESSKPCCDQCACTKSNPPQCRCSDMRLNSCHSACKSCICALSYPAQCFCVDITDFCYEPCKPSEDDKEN

soybean agglutinin (SBA), sequence (P05046 33-285): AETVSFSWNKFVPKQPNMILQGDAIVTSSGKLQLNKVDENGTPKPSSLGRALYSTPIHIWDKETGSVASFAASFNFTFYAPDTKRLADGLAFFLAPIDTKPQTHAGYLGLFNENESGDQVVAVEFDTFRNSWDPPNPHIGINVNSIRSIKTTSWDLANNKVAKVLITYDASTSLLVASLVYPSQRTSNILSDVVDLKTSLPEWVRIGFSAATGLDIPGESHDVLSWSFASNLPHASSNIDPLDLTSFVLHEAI

For “protease derived from Bacillus sp. NCIMB 40484”, the % of anti-nutritional factor degraded in series [1] was found to be 100%; with soybean agglutinin (SBA), 21%; in series [2], 41%.
